Percent of the HA-tagged isoform coprecipitated on anti-FLAG beads data for one substance are collected here from article PMC5941077.

The target of this test is FLAG-tagged 3D7 CLAG3 protein (3D7 CLAG3.1 with tandem miniSOG-FLAG tag, TFLC3 parasite) (Plasmodium falciparum (3D7 line)) (UniProt O77310). The test is described as follows: co-IP; TFLC3 trophozoite-infected cell lysate in 50 mM Tris-HCl pH 7.4, 150 mM NaCl, 5 mM EDTA, 1% Triton X-100; anti-FLAG agarose beads, at least 2 h at 4°C; immunoblot probed with anti-HA; eluate compared with serial dilutions of the input.
Chain of UniProt O77310 (O77310 25-1417): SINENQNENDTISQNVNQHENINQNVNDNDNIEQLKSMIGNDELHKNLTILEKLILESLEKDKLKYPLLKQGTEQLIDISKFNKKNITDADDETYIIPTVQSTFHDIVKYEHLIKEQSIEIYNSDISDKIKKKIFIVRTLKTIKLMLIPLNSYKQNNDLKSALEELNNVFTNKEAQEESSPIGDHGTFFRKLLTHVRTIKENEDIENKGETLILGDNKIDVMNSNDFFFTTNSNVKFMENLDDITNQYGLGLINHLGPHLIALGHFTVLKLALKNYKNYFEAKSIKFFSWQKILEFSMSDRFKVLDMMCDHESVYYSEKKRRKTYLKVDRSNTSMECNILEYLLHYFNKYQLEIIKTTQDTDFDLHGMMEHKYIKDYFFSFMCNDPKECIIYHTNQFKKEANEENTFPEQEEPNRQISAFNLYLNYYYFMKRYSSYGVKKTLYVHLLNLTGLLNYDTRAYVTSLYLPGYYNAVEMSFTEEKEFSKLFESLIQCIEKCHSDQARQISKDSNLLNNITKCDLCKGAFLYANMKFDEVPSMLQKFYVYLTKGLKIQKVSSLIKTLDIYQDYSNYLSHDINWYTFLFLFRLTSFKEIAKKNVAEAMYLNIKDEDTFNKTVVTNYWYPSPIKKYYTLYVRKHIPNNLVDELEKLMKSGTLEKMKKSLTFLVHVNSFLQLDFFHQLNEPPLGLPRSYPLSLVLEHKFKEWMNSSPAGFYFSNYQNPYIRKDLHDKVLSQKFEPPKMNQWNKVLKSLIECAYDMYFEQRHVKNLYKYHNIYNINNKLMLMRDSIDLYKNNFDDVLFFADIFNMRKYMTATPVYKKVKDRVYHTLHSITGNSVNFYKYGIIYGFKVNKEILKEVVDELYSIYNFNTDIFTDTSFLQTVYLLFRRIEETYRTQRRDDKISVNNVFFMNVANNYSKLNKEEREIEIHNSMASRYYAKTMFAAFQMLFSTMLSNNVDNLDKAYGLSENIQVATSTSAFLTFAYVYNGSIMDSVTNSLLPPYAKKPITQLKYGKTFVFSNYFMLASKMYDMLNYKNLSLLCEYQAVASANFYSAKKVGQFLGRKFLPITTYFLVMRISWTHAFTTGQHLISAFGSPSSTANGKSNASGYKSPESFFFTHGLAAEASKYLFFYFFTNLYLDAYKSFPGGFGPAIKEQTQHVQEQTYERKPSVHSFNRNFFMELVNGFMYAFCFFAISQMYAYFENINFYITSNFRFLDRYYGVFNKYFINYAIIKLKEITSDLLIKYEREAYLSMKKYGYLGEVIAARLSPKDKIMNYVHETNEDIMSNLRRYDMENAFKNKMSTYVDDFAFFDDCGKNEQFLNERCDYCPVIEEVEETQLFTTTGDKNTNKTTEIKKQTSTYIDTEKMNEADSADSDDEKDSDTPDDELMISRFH

Consider “HA-tagged Dd2 CLAG3 protein (TFLC3 parasite) (natural protein)”, for which the percent of the HA-tagged isoform coprecipitated on anti-FLAG beads lay within 1 to 10%.
